B1: EF-hand domain-containing protein 1 (Homo sapiens), Q5JVL4 (parent)
chain: MVSNPVHGLPFLPGTSFKDSTKTAFHRSQTLSYRNGYAIVRRPTVGIGGDRLQFNQLSQAELDELASKAPVLTYGQPKQAPPADFIPAHVAFDKKVLKFDAYFQEDVPMSTEEQYRIRQVNIYYYLEDDSMSVIEPVVENSGILQGKLIKRQRLAKNDRGDHYHWKDLNRGINITIYGKTFRVVDCDQFTQVFLESQGIELNPPEKMALDPYTELRKQPLRKYVTPSDFDQLKQFLTFDKQVLRFYAIWDDTDSMYGECRTYIIHYYLMDDTVEIREVHERNDGRDPFPLLMNRQRVPKVLVENAKNFPQCVLEISDQEVLEWYTAKDFIVGKSLTILGRTFFIYDCDPFTRRYYKEKFGITDLPRIDVSKREPPPVKQELPPYNGFGLVEDSAQNCFALIPKAPKKDVIKMLVNDNKVLRYLAVLESPIPEDKDRRFVFSYFLATDMISIFEPPVRNSGIIGGKYLGRTKVVKPYSTVDNPVYYGPSDFFIGAVIEVFGHRFIILDTDEYVLKYMESNAAQYSPEALASIQNHVRKREAPAPEAESKQTEKDPGVQELEALIDTIQKQLKDHSCKDNIREAFQIYDKEASGYVDRDMFFKICESLNVPVDDSLVKELIRMCSHGEGKINYYNFVRAFSN
B2: Cyclin-dependent kinase 4 inhibitor C (Homo sapiens), P42773 (parent)
chain: MAEPWGNELASAAARGDLEQLTSLLQNNVNVNAQNGFGRTALQVMKLGNPEIARRLLLRGANPDLKDRTGFAVIHDAARAGFLDTLQTLLEFQADVNIEDNEGNLPLHLAAKEGHLRVVEFLVKHTASNVGHRNHKGDTACDLARLYGRNEVVSLMQANGAGGATNLQ
B3: Beta-crystallin A4 (Homo sapiens), P53673 (parent)
chain: MTLQCTKSAGPWKMVVWDEDGFQGRRHEFTAECPSVLELGFETVRSLKVLSGAWVGFEHAGFQGQQYILERGEYPSWDAWGGNTAYPAERLTSFRPAACANHRDSRLTIFEQENFLGKKGELSDDYPSLQAMGWEGNEVGSFHVHSGAWVCSQFPGYRGFQYVLECDHHSGDYKHFREWGSHAPTFQVQSIRRIQQ
B4: Fructose-1,6-bisphosphatase 1 (Homo sapiens), P09467 (parent)
chain: MADQAPFDTDVNTLTRFVMEEGRKARGTGELTQLLNSLCTAVKAISSAVRKAGIAHLYGIAGSTNVTGDQVKKLDVLSNDLVMNMLKSSFATCVLVSEEDKHAIIVEPEKRGKYVVCFDPLDGSSNIDCLVSVGTIFGIYRKKSTDEPSEKDALQPGRNLVAAGYALYGSATMLVLAMDCGVNCFMLDPAIGEFILVDKDVKIKKKGKIYSLNEGYARDFDPAVTEYIQRKKFPPDNSAPYGARYVGSMVADVHRTLVYGGIFLYPANKKSPNGKLRLLYECNPMAYVMEKAGGMATTGKEAVLDVIPTDIHQRAPVILGSPDDVLEFLKVYEKHSAQ
partner: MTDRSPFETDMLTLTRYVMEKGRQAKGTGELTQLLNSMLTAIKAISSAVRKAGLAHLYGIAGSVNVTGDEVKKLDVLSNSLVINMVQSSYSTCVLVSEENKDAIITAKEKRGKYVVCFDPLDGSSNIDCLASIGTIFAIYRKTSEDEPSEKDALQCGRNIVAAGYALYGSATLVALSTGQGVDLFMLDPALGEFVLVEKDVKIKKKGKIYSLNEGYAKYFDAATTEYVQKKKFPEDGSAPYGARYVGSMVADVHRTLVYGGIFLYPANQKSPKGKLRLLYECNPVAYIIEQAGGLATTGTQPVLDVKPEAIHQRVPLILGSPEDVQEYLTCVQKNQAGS
B5: ATP synthase mitochondrial F1 complex assembly factor 2 (Homo sapiens), Q8N5M1 (parent)
chain: MWRSCLRLRDGGRRLLNRPAGGPSASMSPGPTIPSPARAYAPPTERKRFYQNVSITQGEGGFEINLDHRKLKTPQAKLFTVPSEALAIAVATEWDSQQDTIKYYTMHLTTLCNTSLDNPTQRNKDQLIRAAVKFLDTDTICYRVEEPETLVELQRNEWDPIIEWAEKRYGVEISSSTSIMGPSIPAKTREVLVSHLASYNTWALQGIEFVAAQLKSMVLTLGLIDLRLTVEQAVLLSRLEEEYQIQKWGNIEWAHDYELQELRARTAAGTLFIHLCSESTTVKHKLLKE
B6: Keratin, type II cytoskeletal 1 (Homo sapiens), P04264 (parent)
chain: MSRQFSSRSGYRSGGGFSSGSAGIINYQRRTTSSSTRRSGGGGGRFSSCGGGGGSFGAGGGFGSRSLVNLGGSKSISISVARGGGRGSGFGGGYGGGGFGGGGFGGGGFGGGGIGGGGFGGFGSGGGGFGGGGFGGGGYGGGYGPVCPPGGIQEVTINQSLLQPLNVEIDPEIQKVKSREREQIKSLNNQFASFIDKVRFLEQQNQVLQTKWELLQQVDTSTRTHNLEPYFESFINNLRRRVDQLKSDQSRLDSELKNMQDMVEDYRNKYEDEINKRTNAENEFVTIKKDVDGAYMTKVDLQAKLDNLQQEIDFLTALYQAELSQMQTQISETNVILSMDNNRSLDLDSIIAEVKAQYEDIAQKSKAEAESLYQSKYEELQITAGRHGDSVRNSKIEISELNRVIQRLRSEIDNVKKQISNLQQSISDAEQRGENALKDAKNKLNDLEDALQQAKEDLARLLRDYQELMNTKLALDLEIATYRTLLEGEESRMSGECAPNVSVSVSTSHTTISGGGSRGGGGGGYGSGGSSYGSGGGSYGSGGGGGGGRGSYGSGGSSYGSGGGSYGSGGGGGGHGSYGSGSSSGGYRGGSGGGGGGSSGGRGSGGGSSGGSIGGRGSSSGGVKSSGGSSSVKFVSTTYSGVTR
partner: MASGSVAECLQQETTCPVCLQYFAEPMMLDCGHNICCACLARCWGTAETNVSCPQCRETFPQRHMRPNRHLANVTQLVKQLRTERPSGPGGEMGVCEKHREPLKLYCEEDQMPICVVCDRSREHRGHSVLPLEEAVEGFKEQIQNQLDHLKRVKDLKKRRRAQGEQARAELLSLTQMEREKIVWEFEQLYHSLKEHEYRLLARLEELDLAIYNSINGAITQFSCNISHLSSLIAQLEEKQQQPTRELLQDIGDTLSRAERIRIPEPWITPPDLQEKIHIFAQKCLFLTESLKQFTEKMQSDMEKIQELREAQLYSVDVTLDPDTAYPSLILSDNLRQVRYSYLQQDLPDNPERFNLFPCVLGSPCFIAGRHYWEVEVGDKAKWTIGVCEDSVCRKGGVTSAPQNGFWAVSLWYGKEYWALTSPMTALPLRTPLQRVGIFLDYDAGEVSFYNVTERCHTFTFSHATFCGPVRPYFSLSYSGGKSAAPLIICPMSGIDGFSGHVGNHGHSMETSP

Variants of: B1
Conditions: with ikzf3_human IKZF3, Q9UKT9
Target sequence in this assay (Q9UKT9 whole entry): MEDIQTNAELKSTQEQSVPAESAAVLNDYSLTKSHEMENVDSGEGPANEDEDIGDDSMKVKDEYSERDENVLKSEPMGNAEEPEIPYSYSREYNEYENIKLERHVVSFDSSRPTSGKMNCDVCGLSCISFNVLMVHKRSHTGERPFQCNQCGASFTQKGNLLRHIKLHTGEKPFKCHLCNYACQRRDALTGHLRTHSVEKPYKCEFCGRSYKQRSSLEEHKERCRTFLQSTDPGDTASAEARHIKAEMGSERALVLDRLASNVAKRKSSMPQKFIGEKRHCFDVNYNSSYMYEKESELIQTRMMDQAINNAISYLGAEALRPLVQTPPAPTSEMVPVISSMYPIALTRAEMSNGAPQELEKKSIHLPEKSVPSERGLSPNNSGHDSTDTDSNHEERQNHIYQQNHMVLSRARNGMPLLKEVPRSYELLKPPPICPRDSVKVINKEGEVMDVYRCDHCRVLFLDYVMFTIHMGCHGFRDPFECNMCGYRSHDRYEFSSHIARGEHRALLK

Row | effect of a mutation on the interaction | Variant
1 | with no effect | M448T
2 | disrupting interaction strength | P77T

Variants of: B1
Conditions: with kctd4_human KCTD4, Q8WVF5

Row | effect of a mutation on the interaction | Variant
3 | with no effect | M448T
4 | disrupting interaction strength | P77T

Variants of: B1
Conditions: with rim3a_human RIMBP3, Q9UFD9

Row | effect of a mutation on the interaction | Variant
5 | with no effect | M448T
6 | disrupting interaction strength | P77T

Variants of: B1
Conditions: with trip6_human TRIP6, Q15654
Target sequence in this assay (Q15654 whole entry): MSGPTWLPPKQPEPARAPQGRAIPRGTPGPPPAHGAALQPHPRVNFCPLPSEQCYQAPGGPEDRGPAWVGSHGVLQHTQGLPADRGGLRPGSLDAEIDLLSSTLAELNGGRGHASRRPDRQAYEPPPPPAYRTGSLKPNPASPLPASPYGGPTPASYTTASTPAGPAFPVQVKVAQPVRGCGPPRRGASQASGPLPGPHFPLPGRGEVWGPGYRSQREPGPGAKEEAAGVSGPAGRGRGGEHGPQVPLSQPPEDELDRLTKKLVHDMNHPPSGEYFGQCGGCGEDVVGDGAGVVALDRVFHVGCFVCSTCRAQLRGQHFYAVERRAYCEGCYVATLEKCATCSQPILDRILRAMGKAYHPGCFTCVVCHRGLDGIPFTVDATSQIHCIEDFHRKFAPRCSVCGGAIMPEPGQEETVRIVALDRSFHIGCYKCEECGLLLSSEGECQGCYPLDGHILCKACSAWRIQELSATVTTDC

Row | effect of a mutation on the interaction | Variant
7 | with no effect | M448T
8 | disrupting interaction strength | P77T

Variants of: B1
Conditions: with KRT15, P19012

Row | effect of a mutation on the interaction | Variant
9 | with no effect | M448T
10 | disrupting interaction strength | P77T

Variants of: B1
Conditions: with TCF4, P15884-3
Target sequence in this assay (P15884 other isoform, or with tags, fused parts or gaps): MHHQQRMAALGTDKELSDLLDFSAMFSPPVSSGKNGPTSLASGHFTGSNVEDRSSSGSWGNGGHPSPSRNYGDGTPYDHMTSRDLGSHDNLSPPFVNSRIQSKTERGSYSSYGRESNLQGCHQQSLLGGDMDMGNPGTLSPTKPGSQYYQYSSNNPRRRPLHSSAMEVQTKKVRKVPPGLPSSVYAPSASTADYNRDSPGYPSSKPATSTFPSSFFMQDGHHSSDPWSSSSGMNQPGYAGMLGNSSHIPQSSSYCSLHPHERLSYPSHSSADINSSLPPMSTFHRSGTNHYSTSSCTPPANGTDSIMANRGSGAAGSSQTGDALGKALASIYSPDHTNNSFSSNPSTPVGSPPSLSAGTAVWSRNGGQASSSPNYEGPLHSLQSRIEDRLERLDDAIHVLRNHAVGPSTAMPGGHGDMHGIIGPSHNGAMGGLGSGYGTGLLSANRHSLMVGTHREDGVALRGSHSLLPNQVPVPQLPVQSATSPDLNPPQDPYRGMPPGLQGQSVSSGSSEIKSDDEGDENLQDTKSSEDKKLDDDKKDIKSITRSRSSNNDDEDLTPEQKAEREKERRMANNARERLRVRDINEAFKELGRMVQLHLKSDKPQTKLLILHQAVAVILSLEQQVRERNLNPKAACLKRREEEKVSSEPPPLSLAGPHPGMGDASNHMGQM

Row | effect of a mutation on the interaction | Variant
11 | with no effect | M448T
12 | disrupting interaction strength | P77T

Variants of: B1
Conditions: with goga2_human GOLGA2, Q08379
Sequence of goga2_human GOLGA2, Q08379 (Q08379 whole entry): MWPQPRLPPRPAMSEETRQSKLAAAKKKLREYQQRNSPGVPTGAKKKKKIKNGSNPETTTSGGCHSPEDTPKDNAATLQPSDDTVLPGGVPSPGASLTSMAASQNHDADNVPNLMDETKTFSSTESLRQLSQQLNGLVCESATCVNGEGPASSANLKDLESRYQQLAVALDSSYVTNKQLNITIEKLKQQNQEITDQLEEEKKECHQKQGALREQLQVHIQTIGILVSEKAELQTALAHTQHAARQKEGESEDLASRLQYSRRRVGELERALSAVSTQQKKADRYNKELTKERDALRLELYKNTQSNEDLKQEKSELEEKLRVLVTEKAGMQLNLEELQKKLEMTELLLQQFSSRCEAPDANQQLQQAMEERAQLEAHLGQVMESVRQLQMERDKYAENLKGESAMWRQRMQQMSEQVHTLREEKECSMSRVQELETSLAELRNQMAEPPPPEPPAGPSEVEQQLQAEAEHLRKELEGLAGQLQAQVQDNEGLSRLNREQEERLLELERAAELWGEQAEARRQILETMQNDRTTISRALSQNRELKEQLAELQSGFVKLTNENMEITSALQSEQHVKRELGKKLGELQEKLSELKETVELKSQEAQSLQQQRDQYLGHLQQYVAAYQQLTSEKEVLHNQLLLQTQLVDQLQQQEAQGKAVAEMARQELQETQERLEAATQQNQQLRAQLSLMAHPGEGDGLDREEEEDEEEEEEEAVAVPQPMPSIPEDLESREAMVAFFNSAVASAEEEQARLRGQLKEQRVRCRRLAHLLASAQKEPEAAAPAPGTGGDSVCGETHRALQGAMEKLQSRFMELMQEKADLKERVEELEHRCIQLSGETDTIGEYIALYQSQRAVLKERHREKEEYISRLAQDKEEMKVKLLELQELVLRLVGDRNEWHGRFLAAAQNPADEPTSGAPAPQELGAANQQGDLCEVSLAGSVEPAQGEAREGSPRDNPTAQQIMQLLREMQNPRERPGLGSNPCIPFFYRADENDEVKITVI

Row | effect of a mutation on the interaction | Variant
13 | with no effect | M448T
14 | disrupting interaction strength | P77T

Variants of: B2
Conditions: with cdk6_human CDK6, Q00534

Row | effect of a mutation on the interaction | Variant
15 | with no effect | V31L

Variants of: B2
Conditions: with TCF12, Q99081-3

Row | effect of a mutation on the interaction | Variant
16 | disrupting interaction strength | V31L

Variants of: B2
Conditions: with NAGK

Row | effect of a mutation on the interaction | Variant
17 | disrupting interaction strength | V31L

Variants of: B2
Conditions: with sahh2_human AHCYL1, O43865

Row | effect of a mutation on the interaction | Variant
18 | disrupting interaction strength | V31L

Variants of: B2
Conditions: with TCF4, P15884-3
Target sequence in this assay (P15884 other isoform, or with tags, fused parts or gaps): as the sequence (P15884 other isoform, or with tags, fused parts or gaps) above

Row | effect of a mutation on the interaction | Variant
19 | disrupting interaction strength | V31L

Variants of: B3
Conditions: with ikzf3_human IKZF3, Q9UKT9
Target sequence in this assay (Q9UKT9 whole entry): as the sequence (Q9UKT9 whole entry) above

Row | effect of a mutation on the interaction | Variant
20 | disrupting interaction strength | L69P
21 | disrupting interaction strength | F94S
22 | disrupting interaction strength | V36M

Variants of: B3
Conditions: with trip6_human TRIP6, Q15654
Target sequence in this assay (Q15654 whole entry): as the sequence (Q15654 whole entry) above

Row | effect of a mutation on the interaction | Variant
23 | disrupting interaction strength | L69P
24 | disrupting interaction strength | F94S
25 | disrupting interaction strength | V36M

Variants of: B3
Conditions: with gli1_human GLI1, P08151
Sequence of gli1_human GLI1, P08151 (P08151 whole entry): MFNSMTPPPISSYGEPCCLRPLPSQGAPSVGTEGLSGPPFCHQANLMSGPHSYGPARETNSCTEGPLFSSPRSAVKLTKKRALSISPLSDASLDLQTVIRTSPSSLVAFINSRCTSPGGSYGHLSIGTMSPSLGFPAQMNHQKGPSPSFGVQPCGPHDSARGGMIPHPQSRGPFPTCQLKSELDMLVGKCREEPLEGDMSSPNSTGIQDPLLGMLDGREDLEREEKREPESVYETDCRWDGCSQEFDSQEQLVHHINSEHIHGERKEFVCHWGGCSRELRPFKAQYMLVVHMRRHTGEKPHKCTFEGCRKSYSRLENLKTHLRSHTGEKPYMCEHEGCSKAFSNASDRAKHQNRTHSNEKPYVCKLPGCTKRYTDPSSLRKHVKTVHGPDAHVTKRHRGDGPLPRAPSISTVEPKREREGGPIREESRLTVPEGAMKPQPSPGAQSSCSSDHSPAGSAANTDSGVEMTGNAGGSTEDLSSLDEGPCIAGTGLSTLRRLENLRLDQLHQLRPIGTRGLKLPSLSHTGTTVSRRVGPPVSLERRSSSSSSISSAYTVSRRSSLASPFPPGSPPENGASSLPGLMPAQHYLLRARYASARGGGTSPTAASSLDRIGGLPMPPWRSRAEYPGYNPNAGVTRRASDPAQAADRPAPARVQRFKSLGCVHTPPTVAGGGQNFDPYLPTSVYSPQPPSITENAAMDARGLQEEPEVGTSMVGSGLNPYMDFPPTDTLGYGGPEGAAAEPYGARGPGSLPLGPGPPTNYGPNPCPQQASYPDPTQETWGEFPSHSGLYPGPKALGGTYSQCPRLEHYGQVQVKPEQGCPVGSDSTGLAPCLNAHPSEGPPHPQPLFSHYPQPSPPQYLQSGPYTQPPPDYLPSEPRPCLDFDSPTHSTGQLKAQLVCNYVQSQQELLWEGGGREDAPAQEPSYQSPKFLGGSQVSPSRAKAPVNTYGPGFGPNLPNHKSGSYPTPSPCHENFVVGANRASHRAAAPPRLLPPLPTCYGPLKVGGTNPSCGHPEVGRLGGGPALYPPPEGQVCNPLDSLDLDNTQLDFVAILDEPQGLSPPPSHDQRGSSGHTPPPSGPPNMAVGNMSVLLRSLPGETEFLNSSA

Row | effect of a mutation on the interaction | Variant
26 | disrupting interaction strength | L69P
27 | disrupting interaction strength | F94S
28 | disrupting interaction strength | V36M

Variants of: B3
Conditions: with ccd33_human CCDC33, Q8N5R6
Sequence of ccd33_human CCDC33, Q8N5R6 (Q8N5R6 whole entry): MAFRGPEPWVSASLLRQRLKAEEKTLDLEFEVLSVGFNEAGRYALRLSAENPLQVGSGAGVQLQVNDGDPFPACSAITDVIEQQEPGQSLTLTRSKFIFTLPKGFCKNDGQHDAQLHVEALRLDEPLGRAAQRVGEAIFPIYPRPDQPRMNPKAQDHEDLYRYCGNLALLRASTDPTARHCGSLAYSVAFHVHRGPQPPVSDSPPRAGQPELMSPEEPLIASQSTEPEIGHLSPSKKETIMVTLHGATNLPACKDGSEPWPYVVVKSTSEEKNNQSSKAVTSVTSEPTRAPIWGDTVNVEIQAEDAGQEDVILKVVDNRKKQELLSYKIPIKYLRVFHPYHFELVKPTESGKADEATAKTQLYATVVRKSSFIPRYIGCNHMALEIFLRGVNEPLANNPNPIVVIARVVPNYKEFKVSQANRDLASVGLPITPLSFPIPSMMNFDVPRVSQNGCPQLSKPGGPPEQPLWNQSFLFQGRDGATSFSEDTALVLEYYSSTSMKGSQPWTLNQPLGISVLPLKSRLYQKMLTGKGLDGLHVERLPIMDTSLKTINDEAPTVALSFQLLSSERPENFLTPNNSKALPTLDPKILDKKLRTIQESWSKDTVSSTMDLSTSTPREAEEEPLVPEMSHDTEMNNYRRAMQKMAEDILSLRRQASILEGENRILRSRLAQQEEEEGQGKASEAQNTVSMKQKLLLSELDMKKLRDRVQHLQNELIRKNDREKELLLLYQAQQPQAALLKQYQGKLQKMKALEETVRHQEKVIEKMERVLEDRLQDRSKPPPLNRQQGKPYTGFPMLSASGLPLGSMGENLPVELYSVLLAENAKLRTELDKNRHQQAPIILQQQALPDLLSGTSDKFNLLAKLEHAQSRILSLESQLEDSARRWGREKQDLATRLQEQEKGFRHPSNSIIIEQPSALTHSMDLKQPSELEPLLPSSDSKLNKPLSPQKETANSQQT

Row | effect of a mutation on the interaction | Variant
29 | disrupting interaction strength | L69P
30 | disrupting interaction strength | F94S
31 | disrupting interaction strength | V36M

Variants of: B4
Conditions: with FBP2, O00757

Row | effect of a mutation on the interaction | Variant
32 | with no effect | R218K
33 | with no effect | F233I
34 | disrupting interaction strength | F194S
35 | disrupting interaction strength | G260R

Variants of: B4
Conditions: with FBP2, O00757
Remark: another data set of the same source

Row | effect of a mutation on the interaction | Variant
36 | with no effect | N213K
37 | with no effect | F194S
38 | with no effect | G164S
39 | with no effect | G260R

Variants of: B5
Conditions: with ikzf3_human IKZF3, Q9UKT9
Target sequence in this assay (Q9UKT9 whole entry): as the sequence (Q9UKT9 whole entry) above

Row | effect of a mutation on the interaction | Variant
40 | disrupting interaction strength | W94R

Variants of: B5
Conditions: with pak5_human PAK5, Q9P286

Row | effect of a mutation on the interaction | Variant
41 | disrupting interaction strength | W94R

Variants of: B5
Conditions: with maga6_human MAGEA6, P43360

Row | effect of a mutation on the interaction | Variant
42 | disrupting interaction strength | W94R

Variants of: B5
Conditions: with lzts2_human LZTS2, Q9BRK4

Row | effect of a mutation on the interaction | Variant
43 | disrupting interaction strength | W94R

Variants of: B5
Conditions: with KRT40, Q6A162

Row | effect of a mutation on the interaction | Variant
44 | disrupting interaction strength | W94R

Variants of: B5
Conditions: with rpia_human RPIA

Row | effect of a mutation on the interaction | Variant
45 | disrupting interaction strength | W94R

Variants of: B5
Conditions: with ews_human EWSR1, Q01844

Row | effect of a mutation on the interaction | Variant
46 | disrupting interaction strength | W94R

Variants of: B6
Conditions: with tri27_human TRIM27, P14373

Row | effect of a mutation on the interaction | Variant
47 | causing an interaction | L161P

Source: IntAct's records for PubMed 25910212
